Laboratory results as given in publication PMC13208732.

Columns and labels:
[1] = target: human vascular endothelial growth factor A, isoform VEGFA165 (Homo sapiens); assay: ELISA; competition with biotinylated NRP1, no heparin; settings: Fc fusion
[2] = target: human vascular endothelial growth factor A, isoform VEGFA165 (human) (UniProt P15692); assay: ELISA; competition with NRP1, no heparin
[3] = target: human vascular endothelial growth factor A, isoform VEGFA165 (human) (UniProt P15692); assay: ELISA; competition with VEGFR1, no heparin
[4] = target: human vascular endothelial growth factor A, isoform VEGFA165 (Homo sapiens); assay: ELISA; competition with biotinylated VEGFR1, no heparin; settings: Fc fusion

Sequence of human vascular endothelial growth factor A, isoform VEGFA165 (Homo sapiens) (P15692 other isoform, or with tags, fused parts or gaps): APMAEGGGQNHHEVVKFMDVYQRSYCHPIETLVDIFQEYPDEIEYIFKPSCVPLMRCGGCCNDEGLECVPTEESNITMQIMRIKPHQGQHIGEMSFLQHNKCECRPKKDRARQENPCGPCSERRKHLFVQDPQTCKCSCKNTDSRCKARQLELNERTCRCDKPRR
Sequence of human vascular endothelial growth factor A, isoform VEGFA165 (human) (P15692 other isoform, or with tags, fused parts or gaps): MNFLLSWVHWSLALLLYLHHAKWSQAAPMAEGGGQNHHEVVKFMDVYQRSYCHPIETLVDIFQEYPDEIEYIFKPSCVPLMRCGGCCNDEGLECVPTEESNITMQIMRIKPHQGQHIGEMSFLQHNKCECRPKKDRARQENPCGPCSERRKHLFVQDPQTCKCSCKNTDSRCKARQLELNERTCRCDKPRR
Sequence of VEGFR1 domains 1 to 6 fused to a C-terminal Fc, biotinylated (P17948 27-654): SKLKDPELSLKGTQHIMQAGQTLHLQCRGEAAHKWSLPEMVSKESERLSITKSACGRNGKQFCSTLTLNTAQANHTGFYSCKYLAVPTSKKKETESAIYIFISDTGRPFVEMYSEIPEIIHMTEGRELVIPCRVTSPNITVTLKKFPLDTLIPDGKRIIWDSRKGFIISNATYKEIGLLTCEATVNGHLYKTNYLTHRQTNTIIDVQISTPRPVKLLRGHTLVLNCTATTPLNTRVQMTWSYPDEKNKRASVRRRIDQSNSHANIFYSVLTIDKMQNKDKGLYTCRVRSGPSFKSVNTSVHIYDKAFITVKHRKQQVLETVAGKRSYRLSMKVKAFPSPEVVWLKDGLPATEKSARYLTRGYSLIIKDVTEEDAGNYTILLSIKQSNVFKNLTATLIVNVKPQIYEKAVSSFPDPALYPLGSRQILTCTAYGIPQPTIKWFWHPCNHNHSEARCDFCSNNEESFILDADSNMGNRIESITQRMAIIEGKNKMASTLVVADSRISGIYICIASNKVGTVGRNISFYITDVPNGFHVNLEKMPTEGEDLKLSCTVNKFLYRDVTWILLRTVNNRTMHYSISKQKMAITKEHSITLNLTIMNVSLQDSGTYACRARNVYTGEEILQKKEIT

NRP1 receptor domains α1α2β1β2 fused to a C-terminal Fc, biotinylated (from UniProt O14786 22-583)
IC50 [1]: 52.8 nM

G6-31
IC50 [2]: 1.9 nM | IC50 [3]: 58.2 nM

VEGFR1 domains 1 to 6 fused to a C-terminal Fc, biotinylated (from UniProt P17948 27-654)
IC50 [4]: 16.3 nM
